Measured values as given in the supplement of paper PMC9170038.

System: MS2 coat protein
Assay: apparent KD of MS2 coat protein; designed switch direction (-1 OFF switch, 1 ON switch): -1; higher = weaker reporter binding
Summary of the method: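 Normalised cluster fluorescence was curve-fitted, and each design's median over clusters is its apparent KD. Before this, SNAP-549-labelled MS2 coat protein was titrated from 0.7 or 1.5 nM, doubling to 3 µM, over RNA switches transcribed on Illumina chips by stalled E. coli RNA polymerase. Titrations had no input, 200 uM small-molecule ligand, or an oligonucleotide input, and steps lasted 0.8–1.5 h (lowest) to 10–20 min (highest).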

[1] = input ligand: microRNA oligo, concentration not stated
[2] = Eterna round: R95, input ligand: FMN 200 uM
[3] = Eterna round: R95, input ligand: microRNA oligo, concentration not stated
[4] = Eterna round: R95, input ligand: none

What does the source list for “CUAUGUUAGCAGGAUAUGCCAUUAUUCUUUUUCGCAGAAGGGCUUACAUGAGGAUCACCCAUGUUACAUUUCUU [JR_E6_Sub086] (Eterna round: R96, puzzle: Exclusion 6)”?
apparent KD of MS2 coat protein (input ligand: FMN 200 uM): 42.6 nM; apparent KD of MS2 coat protein [1]: 14.9 nM; apparent KD of MS2 coat protein (input ligand: none): 18.5 nM

For “CAGUACUGAGGAUAUACAUGAGGAUCACCCAUGUGUUUUCUAUUAGGAAACUAGUUAUGUAGAAGGCAGUACUG [Omei Ex3 Mod of Eli 4.27 v11] (Eterna round: R97, puzzle: Exclusion 3)”, which “apparent KD of MS2 coat protein” value (input ligand: FMN 200 uM) is on record?
The value was 304 nM.

What about the “apparent KD of MS2 coat protein” value (input ligand: none) of the same sequence?
The value was 40 nM.

What does the source list for “UUAUUUAGUGUGAGGAUAUGCUGGUCGAUAGAUCAGCAGAAGGCACAUGAGGAUCACCCAUGUAAUAUAUUAAU [Mat - Exclusion 4 - JL Mod - D33] (puzzle: Brourd's mod of Exclusion 4)”?
apparent KD of MS2 coat protein [2]: 395 nM; apparent KD of MS2 coat protein [3]: 50 nM; apparent KD of MS2 coat protein [4]: 72.7 nM

With “UUCCAACAUGAGGAUCACCCAUGUCAGGAUAUCUAGGCUACUGCUACCACAAUUAGCUAGAGAAGGGACAAGAU [EX1 B.14] (Eterna round: R97, puzzle: Exclusion 1)” as the sequence, how does the “apparent KD of MS2 coat protein” value (input ligand: FMN 200 uM) read?
Its value is 26.1 nM.

What about the “apparent KD of MS2 coat protein” value (input ligand: none) of the same sequence?
Its value is 19.5 nM.

For “GAAUAGGCAGGAUAUACAUGAGGAUCACCCAUGUGCAACCGAAAGGAACGUCCGAAAGGUAGAAGGGCCUAAAC [ChP 13.04.2015 #9] (puzzle: Exclusion 3)”, which “apparent KD of MS2 coat protein” value [2] is on record?
Its value is 73.7 nM.

What about the “apparent KD of MS2 coat protein” value [3] of the same sequence?
The value was 17.9 nM.

What about the “apparent KD of MS2 coat protein” value [4] of the same sequence?
The value was 19.6 nM.

How did the “apparent KD of MS2 coat protein” value [2] turn out when “UAAUGCAAGCAAAGAUCUUACAUGAGGAUCACCCAUGUGCUCGUCUUAUAAAGUACUAUCACGAAAGUGAUAGUACA [Mat - Sensor v3 - turn-off var 1 - Eli Mod - D91] (puzzle: Sensor v3, turn-off variant 1)” was run?
The value was 27.6 nM.

What about the “apparent KD of MS2 coat protein” value [3] of the same sequence?
The value was 109 nM.

What about the “apparent KD of MS2 coat protein” value [4] of the same sequence?
The value was 26.3 nM.

Which results are given for “CAAGAUUACUGAGGAUAUCCUAGUUUAUCUCAGGGAGAAGGCGGACUCAACAUGAGGAUCACCCAUGUAAGACGGGUACUAGAG [Ex NG1 #15] (Eterna round: R96, puzzle: Exclusion NG 1)”?
apparent KD of MS2 coat protein (input ligand: FMN 200 uM): 84.8 nM; apparent KD of MS2 coat protein [1]: 68.4 nM; apparent KD of MS2 coat protein (input ligand: none): 43.2 nM

For “CGUCUGUAAGGAUAUGGUUACAUAGACAUGAGGAUCACCCAUGUGACGUGGGACUAGUGAUUAGAAGGUACGAACG [EX5 #66] (Eterna round: R97, puzzle: Exclusion 5)”, which “apparent KD of MS2 coat protein” value (input ligand: FMN 200 uM) is on record?
The value was 77 nM.

And the “apparent KD of MS2 coat protein” value (input ligand: none)?
Its value is 78.6 nM.

How did the “apparent KD of MS2 coat protein” value (input ligand: FMN 200 uM) turn out when “ACAUGUCAUCGAGGAUAUUGGACACAUGAGGAUCACCCAUGUACUCGGAUGCUCUAGCAUGAGUUCGAGAAGGCGAUGUACAUU [Ex NG2 #79] (Eterna round: R96, puzzle: Exclusion NG 2)” was run?
The value was 1350 nM.

What about the “apparent KD of MS2 coat protein” value [1] of the same sequence?
Its value is 234 nM.

What about the “apparent KD of MS2 coat protein” value (input ligand: none) of the same sequence?
Its value is 593 nM.

What does the source list for “CAACCUCACAACCGUUAAAACAUGAGGAUCACCCAUGUGCCAUAACGGCGCAUGAUCGAGCUAGGCCCGUCCAUGCA [Razaxe] (Eterna round: R96, puzzle: Sensor v2, turn-off variant)”?
apparent KD of MS2 coat protein (input ligand: FMN 200 uM): 23.2 nM; apparent KD of MS2 coat protein [1]: 18.8 nM; apparent KD of MS2 coat protein (input ligand: none): 26.1 nM

With “CUCGGACAUGAGGAUCACCCAUGUGAGGAUAUGAUGCGAUCGUCGAAAGACGAUAGCAUCAGAAGGUACAAAUG [Fiskers Ex 1 - 22] (Eterna round: R96, puzzle: Exclusion 1)” as the sequence, how does the “apparent KD of MS2 coat protein” value (input ligand: FMN 200 uM) read?
Its value is 60.2 nM.

And the “apparent KD of MS2 coat protein” value [1]?
Its value is 36.2 nM.

And the “apparent KD of MS2 coat protein” value (input ligand: none)?
The value was 50.3 nM.

Which results are given for “AAUUAAGCAAGCAGAUCCCACAUGAGGAUCACCCAUGUGCUCGUCUUAUAAGGUACUGUGACGAGAGUCACGGUACC [Mat - Sensor, turn-off var - Eli Mod - D70] (Eterna round: R97, puzzle: Sensor, turn-off variant 1)”?
apparent KD of MS2 coat protein (input ligand: FMN 200 uM): 128 nM; apparent KD of MS2 coat protein (input ligand: none): 97.1 nM

Which results are given for “CAGCUGAAAGUGAGGAUAUCGACUGCCUCGGCAGUCGAGAAGGCACAUGAGGAUCACCCAUGUCUCAACAGCUG [BmEx4/1-A5] (Eterna round: R97, puzzle: Brourd's mod of Exclusion 4)”?
apparent KD of MS2 coat protein (input ligand: FMN 200 uM): 81.4 nM; apparent KD of MS2 coat protein (input ligand: none): 23 nM

“GCGGUACAUGAGGAUCACCCAUGUCAGGAUAUCCGCUGUUUGUUAAUAAACAAGCGGUGGAGAAGGGACUUCGC [-26.2, -25.5 kcal, 27% A] (Eterna round: R97, puzzle: Exclusion 1)” was tested. Which “apparent KD of MS2 coat protein” value (input ligand: FMN 200 uM) did it give?
The value was 35.2 nM.

And the “apparent KD of MS2 coat protein” value (input ligand: none)?
The value was 31.5 nM.

What does the source list for “UUAAUUAAUUAAUUAGAUCCUCACAUGAGGAUCACCCAUGUGCAGGAUAUCAGCUCGAUUAGAGCUGAGAAGGGCACUAUUAAU [ExNG3/10-B4] (Eterna round: R96, puzzle: Exclusion NG 3)”?
apparent KD of MS2 coat protein (input ligand: FMN 200 uM): 56.1 nM; apparent KD of MS2 coat protein [1]: 85 nM; apparent KD of MS2 coat protein (input ligand: none): 127 nM

What does the source list for “GUAUGGAGAGUGAGGAUAUUUCCUGAGUGAUCAGCGAAGAAGGUACAUGAGGAUCACCCAUGUAGGUGGACUAA [Eternabot (L1) Solution 14] (Eterna round: R97, puzzle: Brourd's mod of Exclusion 4)”?
apparent KD of MS2 coat protein (input ligand: FMN 200 uM): 82.4 nM; apparent KD of MS2 coat protein (input ligand: none): 70.5 nM

Which “apparent KD of MS2 coat protein” value (input ligand: FMN 200 uM) does the source give for “AGUCGUAGACAGGAUAUGCGGCUAAUAAAUAAAGCAGAAGGGUCUACUUGAGGAUCACCCAAGUGGGCGGUCAA [jl-ex6-4.21 ViennaUCT mod] (Eterna round: R97, puzzle: Exclusion 6)” here?
Its value is 186 nM.

What about the “apparent KD of MS2 coat protein” value (input ligand: none) of the same sequence?
The value was 51.8 nM.

“ACUAGCUUUUUGCAUAGUAGGUUUGGUGCUUCGUAUGCUACAUGAGGAUCACCCAUGUUUUACUGAUGUCGUCGUUU [JR_SV3TOV2_Sub094] (puzzle: Sensor v3, turn-off variant 2)” was tested. Which “apparent KD of MS2 coat protein” value [2] did it give?
Its value is 32.7 nM.

What about the “apparent KD of MS2 coat protein” value [3] of the same sequence?
The value was 52.9 nM.

What about the “apparent KD of MS2 coat protein” value [4] of the same sequence?
Its value is 32.3 nM.

How did the “apparent KD of MS2 coat protein” value (input ligand: FMN 200 uM) turn out when “CUUGUUUAUGUAGGAUAUGCCUGGCGUGCCUUUGCAGAAGGACAUGAGGAUCACCCAUGUAUUGCGGUCUGCGUUCAGAUCGCC [salish99_ExNG1_r4_042] (Eterna round: R96, puzzle: Exclusion NG 1)” was run?
The value was 34.9 nM.

What about the “apparent KD of MS2 coat protein” value [1] of the same sequence?
Its value is 18.9 nM.

What about the “apparent KD of MS2 coat protein” value (input ligand: none) of the same sequence?
Its value is 22 nM.

Which results are given for “UAGAAACAUGAGGAUCACCCAUGUGAGGAUAUGAAAAAGAAAAGAAAAGAAAGAAGAAUCAGAAGGCACAAAGG [salish99-ex1_r3_082] (puzzle: Exclusion 1)”?
apparent KD of MS2 coat protein [2]: 38.1 nM; apparent KD of MS2 coat protein [3]: 35.8 nM; apparent KD of MS2 coat protein [4]: 28.7 nM

Which “apparent KD of MS2 coat protein” value (input ligand: FMN 200 uM) does the source give for “UCUUAUUGAGGAUAUACAUUAAAAUACAUGAGGAUCACCCAUGUUCUUCAAUGUAUAUAUGUAGAAGGCAGAAUAU [Mat - Exclusion 5 - JL Mod - D27] (Eterna round: R97, puzzle: Exclusion 5)” here?
The value was 61.2 nM.

What about the “apparent KD of MS2 coat protein” value (input ligand: none) of the same sequence?
Its value is 28.8 nM.

For “UUACUGUGAGGAUAUUACAUUUAGCGGCUAGCAACUAGGGAUAAGAAGGCACAUGAGGAUCACCCAUGUCCCGU [Eternabot (L1) Solution 35] (Eterna round: R97, puzzle: Exclusion 4)”, which “apparent KD of MS2 coat protein” value (input ligand: FMN 200 uM) is on record?
The value was 95.7 nM.

What about the “apparent KD of MS2 coat protein” value (input ligand: none) of the same sequence?
The value was 21.5 nM.

Which results are given for “AAAGAACAUGAGGAUCACCCAUGUGAGGAUAUGUAAGGAUUGUGGAGAAGAAGAGAGAACAGAAGGCACGGAGG [JR_Exclu1_Sub068] (puzzle: Exclusion 1)”?
apparent KD of MS2 coat protein [2]: 36.8 nM; apparent KD of MS2 coat protein [3]: 32.1 nM; apparent KD of MS2 coat protein [4]: 44.9 nM

For “CUAUGUUAGCAGGAUAUGCCAUUAUUCUUUUUCGCAGAAGGGCUUACAUGAGGAUCACCCAUGUUACAUUUCUU [JR_E6_Sub086] (puzzle: Exclusion 6)”, which “apparent KD of MS2 coat protein” value [3] is on record?
Its value is 16.7 nM.

Which “apparent KD of MS2 coat protein” value [3] does the source give for “CUUCGACAUGAGGAUCACCCAUGUCAGGAUAUUGUUUAUCUGGUGUUGUCCAGAUAUGCAAGAAGGGAUGUGUG [LRO-Excl1-04] (puzzle: Exclusion 1)” here?
Its value is 33.8 nM.

For “GUGCCGCGAGGAUAUACAGACGGGUCCAGUACGUGUCUGGGACUUGAGGAUCACCCAAGUAGAAGGCGUCUCAG [salish99_ex2_r4_613] (Eterna round: R97, puzzle: Exclusion 2)”, which “apparent KD of MS2 coat protein” value (input ligand: FMN 200 uM) is on record?
Its value is 39.9 nM.

And the “apparent KD of MS2 coat protein” value (input ligand: none)?
The value was 44.6 nM.

What does the source list for “GCAGAAAGUGUAGGAUAUAGAUAUUAGCGGAAACGCAAUACAUGAGGAUCACCCAUGUUUCCUCACUAGAAGGGCAAAAGCUGC [EXNG2 V2 d] (Eterna round: R96, puzzle: Exclusion NG 2)”?
apparent KD of MS2 coat protein (input ligand: FMN 200 uM): 18.7 nM; apparent KD of MS2 coat protein [1]: 12.5 nM; apparent KD of MS2 coat protein (input ligand: none): 17.2 nM

Which “apparent KD of MS2 coat protein” value [3] does the source give for “CAGGAUAGAGGAUAUACAUAGAUACAGAUUCAUAUAAUCCUACAUGAGGAUCACCCAUGUAGAAGGCUAUCCUG [Fiskers Ex 2 - 25] (puzzle: Exclusion 2)” here?
Its value is 14.5 nM.

“GUGAAACAUGAGGAUCACCCAUGUGAGGAUAUGAUUUAGUAAUGGAGACAGUACAUAUUCAGAAGGCACAAUGG [Mat - Mod of JL D76] (puzzle: Exclusion 1)” was tested. Which “apparent KD of MS2 coat protein” value [2] did it give?
Its value is 55.2 nM.

What about the “apparent KD of MS2 coat protein” value [3] of the same sequence?
Its value is 150 nM.

What about the “apparent KD of MS2 coat protein” value [4] of the same sequence?
Its value is 182 nM.

With “GUACUGAGGCUUUGCUUUAGUCGUACAUGAGGAUCACCCAUGUAGGAUAUGGUAGGCUUUGCUUACCAGAAGGACAGAGUGAUC [JL EXNG3 1.22] (Eterna round: R96, puzzle: Exclusion NG 3)” as the sequence, how does the “apparent KD of MS2 coat protein” value [1] read?
Its value is 188 nM.
